According to PMC5327651 (Virology, 2016):
Positions count from the first letter of the chain named.

B1: WT rhTRIM5α CC-L2 peptide (residues 132-296) with an added C-terminal cysteine, fluorescently labelled (domain or fragment, rhesus macaque)
chain: LMEEVAQEYHVKLQTALEMLRQKQQEAEKLEADIREEKASWKIQIDYDKTNVSADFEQLREILDWEESNELQNLEKEEEDILKSLTKSETEMVQQTQYMRELISELEHRLQGSMMDLLQGVDGIIKRIENMTLKKPKTFHKNQRRVFRAPDLKGMLDMFRELTDAC
modifications: Alexa Fluor 488 C5-maleimide or Alexa Fluor 594 C5-maleimide on the added C-terminal cysteine
B2: RRV275-277AAA rhTRIM5α CC-L2 peptide (residues 132-296) with an added C-terminal cysteine, fluorescently labelled (domain or fragment, rhesus macaque)
chain: B1 chain with R144A, R145A, V146A
modifications: Alexa Fluor 488 C5-maleimide or Alexa Fluor 594 C5-maleimide on the added C-terminal cysteine
B3: HKN271-273AAA rhTRIM5α CC-L2 peptide (residues 132-296) with an added C-terminal cysteine, fluorescently labelled (domain or fragment, rhesus macaque)
chain: B1 chain with H140A, K141A, N142A
modifications: Alexa Fluor 488 C5-maleimide or Alexa Fluor 594 C5-maleimide on the added C-terminal cysteine

Legend:
[1] = target: the molecule itself; experiment: cross-linking
[2] = target: the molecule itself; experiment: FRET or BRET

| Protein | stoichiometry N [1] | binding result [2] |
| --- | --- | --- |
| B1 | 2 | – |
| B2 | – | binds |
| B3 | – | binds |
